Laboratory results from doi:10.1101/2022.10.28.514188 (bioRxiv, 2022).
Where “and” joins values, the source holds several entries; their conditions need not be identical. Equal entries are not always repeated.

How the values were obtained:
CLPB-NBD^E425Q (human) = CLPB-NBD^E425Q (human) (UniProt Q9H078); assay: cryo-EM structure
[1] = target: CLPB^isoform1 (isoform-1 of CLPB) (human); assay: negative-stain EM + cryo-EM 2D classification
[2] = target: CLPB-NBD (NBD-only variant, N-terminal ANK domain truncated) (human) (UniProt Q9H078); assay: cryo-EM 2D classification
[3] = target: the molecule itself; assay: cryo-EM 2D classification
cryo-EM structure [4] = target: the molecule itself; assay: cryo-EM structure
SEC = target: the molecule itself; assay: SEC
[5] = target: the molecule itself; assay: SEC + other: negative-stain EM
cryo-EM structure [6] = target: the molecule itself; assay: cryo-EM structure; remark: listed apart in the source

CLPB-NBD^E425Q (from UniProt Q9H078-2 1-677) (domain or fragment)
stoichiometry N (CLPB-NBD^E425Q (human)): 6 and 7 and 9

CLPB^isoform1 (isoform-1 of CLPB) (enzyme)
stoichiometry N [1]: 14

CLPB-NBD (NBD-only variant, N-terminal ANK domain truncated) (from UniProt Q9H078-2 1-677) (domain or fragment)
stoichiometry N [2]: 6 and 7

B1: CLPB-N127 (human CLPB isoform 2 starting from the PARL cleavage site), wild type (enzyme)
chain: YSKSPSNKDAALLEAARANNMQEVSRLLSEGADVNAKHRLGWTALMVAAINRNNSVVQVLLAAGADPNLGDDFSSVYKTAKEQGIHSLEVLITREDDFNNRLNNRASFKGCTALHYAVLADDYRTVKELLDGGANPLQRNEMGHTPLDYAREGEVMKLLRTSEAKYQEKQRKREAEERRRFPLEQRLKEHIIGQESAIATVGAAIRRKENGWYDEEHPLVFLFLGSSGIGKTELAKQTAKYMHKDAKKGFIRLDMSEFQERHEVAKFIGSPPGYVGHEEGGQLTKKLKQCPNAVVLFDEVDKAHPDVLTIMLQLFDEGRLTDGKGKTIDCKDAIFIMTSNVASDEIAQHALQLRQEALEMSRNRIAENLGDVQISDKITISKNFKENVIRPILKAHFRRDEFLGRINEIVYFLPFCHSELIQLVNKELNFWAKRAKQRHNITLLWDREVADVLVDGYNVHYGARSIKHEVERRVVNQLAAAYEQDLLPGGCTLRITVEDSDKQLLKSPELPSPQAEKRLPKLRLEIIDKDSKTRRLDIRAPLHPEKVCNTI
stoichiometry N [3]: 12 | stoichiometry N (cryo-EM structure [4]): 14

B2: CLPB^Δ201-232 (insertion between AM2 and AM3 deleted) (enzyme)
chain: YSKSPSNKDAALLEAARANNMQEVSRLLSEGADVNAKHRLGWTALMVAAINRNNSVVQVLLAAGADPNLGDDFSSFKGCTALHYAVLADDYRTVKELLDGGANPLQRNEMGHTPLDYAREGEVMKLLRTSEAKYQEKQRKREAEERRRFPLEQRLKEHIIGQESAIATVGAAIRRKENGWYDEEHPLVFLFLGSSGIGKTELAKQTAKYMHKDAKKGFIRLDMSEFQERHEVAKFIGSPPGYVGHEEGGQLTKKLKQCPNAVVLFDEVDKAHPDVLTIMLQLFDEGRLTDGKGKTIDCKDAIFIMTSNVASDEIAQHALQLRQEALEMSRNRIAENLGDVQISDKITISKNFKENVIRPILKAHFRRDEFLGRINEIVYFLPFCHSELIQLVNKELNFWAKRAKQRHNITLLWDREVADVLVDGYNVHYGARSIKHEVERRVVNQLAAAYEQDLLPGGCTLRITVEDSDKQLLKSPELPSPQAEKRLPKLRLEIIDKDSKTRRLDIRAPLHPEKVCNTI
binding result (SEC): binds

B3: CLPB^R178E (enzyme)
chain: YSKSPSNKDAALLEAARANNMQEVSRLLSEGADVNAKHRLGWTALMVAAINENNSVVQVLLAAGADPNLGDDFSSVYKTAKEQGIHSLEVLITREDDFNNRLNNRASFKGCTALHYAVLADDYRTVKELLDGGANPLQRNEMGHTPLDYAREGEVMKLLRTSEAKYQEKQRKREAEERRRFPLEQRLKEHIIGQESAIATVGAAIRRKENGWYDEEHPLVFLFLGSSGIGKTELAKQTAKYMHKDAKKGFIRLDMSEFQERHEVAKFIGSPPGYVGHEEGGQLTKKLKQCPNAVVLFDEVDKAHPDVLTIMLQLFDEGRLTDGKGKTIDCKDAIFIMTSNVASDEIAQHALQLRQEALEMSRNRIAENLGDVQISDKITISKNFKENVIRPILKAHFRRDEFLGRINEIVYFLPFCHSELIQLVNKELNFWAKRAKQRHNITLLWDREVADVLVDGYNVHYGARSIKHEVERRVVNQLAAAYEQDLLPGGCTLRITVEDSDKQLLKSPELPSPQAEKRLPKLRLEIIDKDSKTRRLDIRAPLHPEKVCNTI
binding result [5]: binds

B4: CLPB^R227E (enzyme)
chain: YSKSPSNKDAALLEAARANNMQEVSRLLSEGADVNAKHRLGWTALMVAAINRNNSVVQVLLAAGADPNLGDDFSSVYKTAKEQGIHSLEVLITREDDFNNELNNRASFKGCTALHYAVLADDYRTVKELLDGGANPLQRNEMGHTPLDYAREGEVMKLLRTSEAKYQEKQRKREAEERRRFPLEQRLKEHIIGQESAIATVGAAIRRKENGWYDEEHPLVFLFLGSSGIGKTELAKQTAKYMHKDAKKGFIRLDMSEFQERHEVAKFIGSPPGYVGHEEGGQLTKKLKQCPNAVVLFDEVDKAHPDVLTIMLQLFDEGRLTDGKGKTIDCKDAIFIMTSNVASDEIAQHALQLRQEALEMSRNRIAENLGDVQISDKITISKNFKENVIRPILKAHFRRDEFLGRINEIVYFLPFCHSELIQLVNKELNFWAKRAKQRHNITLLWDREVADVLVDGYNVHYGARSIKHEVERRVVNQLAAAYEQDLLPGGCTLRITVEDSDKQLLKSPELPSPQAEKRLPKLRLEIIDKDSKTRRLDIRAPLHPEKVCNTI
binding result [5]: binds

B5: CLPB^E425Q (Walker B mutant of CLPB-N127, isoform 2) (enzyme)
chain: YSKSPSNKDAALLEAARANNMQEVSRLLSEGADVNAKHRLGWTALMVAAINRNNSVVQVLLAAGADPNLGDDFSSVYKTAKEQGIHSLEVLITREDDFNNRLNNRASFKGCTALHYAVLADDYRTVKELLDGGANPLQRNEMGHTPLDYAREGEVMKLLRTSEAKYQEKQRKREAEERRRFPLEQRLKEHIIGQESAIATVGAAIRRKENGWYDEEHPLVFLFLGSSGIGKTELAKQTAKYMHKDAKKGFIRLDMSEFQERHEVAKFIGSPPGYVGHEEGGQLTKKLKQCPNAVVLFDQVDKAHPDVLTIMLQLFDEGRLTDGKGKTIDCKDAIFIMTSNVASDEIAQHALQLRQEALEMSRNRIAENLGDVQISDKITISKNFKENVIRPILKAHFRRDEFLGRINEIVYFLPFCHSELIQLVNKELNFWAKRAKQRHNITLLWDREVADVLVDGYNVHYGARSIKHEVERRVVNQLAAAYEQDLLPGGCTLRITVEDSDKQLLKSPELPSPQAEKRLPKLRLEIIDKDSKTRRLDIRAPLHPEKVCNTI
stoichiometry N (cryo-EM structure [6]): 12
